From the DeepSol protein solubility set

Experiment: soluble on expression in E. coli; label from the status in PepcDB or PDB records

Row | Sequence | soluble on expression in E. coli
1 | WGYEAVGRFTSWEQIATYPIDNDRKGNKTVVPGDIMYKDVNGDGVINYMDERPIGYRSDSTPTLNFGINLSASWKGFDLAMDWTGSGMTSWQQQYETARPFQNDGNSPEEVFKDAWHLADIWDADSQLIPGKYPLIRLNNEETSAYDKSTFWLHNVKYIKLRNLEFGYTLPKRIVAKAGISNLRLYVSGTNLFSISNIPFMDPECIDSNGLDYPTMRVVNLGINLKF | not soluble
2 | KLEGAFAKGTNVLMADGSIECIENIEVGNKVMGKDGRPREVIKLPRGRETMYSVVQKSQHRAHKSDSSREVPELLKFTCNATHELVVRTPRSVRRLSRTIKGVEYFEVITFEMGQKKAPDGRIVELVKEVSKSYPISEGPERANELVESYRKASNKAYFEWTIEARDLSLLGSHVRKATYQTYAPILYENDHFFDYMQKSKFHLTIEGPKVLAYLLGLWIGDGLSDRATFSVDSRDTSLMERVTEYAEKLNLCAEYKDRKEPQVAKTVNLYSKVVRGNGIRNNLNTENPLWDAIVGLGFLKDGVKNIPSFLSTDNIGTRETFLAGLIDSDGYVTDEHGIKATIKTIHTSVRDGLVSLARSLGLVVSVNAEPAKVDMNGTKHKISYAIYMSGGDVLLNVLSKCAGSKKFRPAPAAAFARECRGFYFELQELKEDDYYGITLSDDSDHQFLLANQVVVHACGER | soluble
3 | MGHHHHHHSHMQEWLYGEKGYYRKALIGQKGDFYTSVSVSKFFGGAVAFYIIKLLEEEKLFLPLKIVEIGSHHGHFLSDIASFLNALSVGVMEQCAFVSCEPLKELQKLQRTIFKQATQLDLMICDLKDLDFKGHENAFVVSNELFDAFACEIVKDNKMLFIAHDHKGVWGAIDEPTKELLKNLDLKQGCAPLFLEAFIKDLLEKLNEASSWVFLSFDYGDETERKDMHLRAFKNHQALDFKDILNNLASLYQQSDLTYDVNFSLVRFLFEKHHAQFSFFKTQANALLDMGLMGLLETFSKSVGYERYLKEAAKIKPLISPGGLGERFKALEFVKKNKM | not soluble
4 | MAHHHHHHSAARRRASGENLQQTRPIAAANLQWESYAEALEHSKQDHKPIGLFFTGSDWCMWCIKMQDQILQSSEFKHFAGVHLHMVEVDFPQKNHQPEEQRQKNQELKAQYKVTGFPELVFIDAEGKQLARMGFEPGGGAAYVSKVKSALKLR | soluble
5 | MFRQLKKNLVATLIAAMTIGQVAPAFADSADTLPDMGTSAGSTLSIGQEMQMGDYYVRQLRGSAPLINDPLLTQYINSLGMRLVSHANSVKTPFHFFLINNDEINAFAFFGGNVVLHSALFRYSDNESQLASVMAHEISHVTQRHLARAMEDQQRSAPLTWVGALGSILLAMASPQAGMAALTGTLAGTRQGMISFTQQNEQEADRIGIQVLQRSGFDPQAMPTFLEKLLDQARYSSRPPEILLTHPLPESRLADARNRANQMRPMVVQSSEDFYLAKARTLGMYNSGRNQLTSDLLDEWAKGNVRQQRAAQYGRALQAMEANKYDEARKTLQPLLAAEPGNAWYLDLATDIDLGQNKANEAINRLKNARDLRTNPVLQLNLANAYLQGGQPQEAANILNRYTFNNKDDSNGWDLLAQAEAALNNRDQELAARAEGYALAGRLDQAISLLSSASSQVKLGSLQQARYDARIDQLRQLQERFKPYTKMLEHHHHHH | soluble
6 | INAVRAALLENAHFMEKFYLQNGRFKQTSTKWPSLPIKEAEGFCIRLNGIARGALDSKFMLKAVAIDKDKNPFIIKMNENLVTFICKKSASSCSDGLDYFKGNDKDCKLLK | not soluble
7 | MSALGAPAPYLHHPTDSHSGRVSFLGSQPSAEVTAVAQLLKDLDRSTFRKLLKLVVGALHGKDCREAVQHLGASANLSEERLAVLLAGTHTLLQQALRLPPASLKPDAFQDELQELGIPQDMIGDLASLAFGSQRPLLDSVAQQQGSSLPRVSNFRWRVDVAISTSAQSRSLQPSVLMQLKLTDGSAHRFEVPIAKFQELRYSVALVLKEMAELERKCERKLQD | not soluble
8 | MESEFLYDLLQLPKEVAQPTEEELPRGGKKKYLSPNSKRNPKFEELQKVLMEWINTTLLPEHIVVRSLEEDMFDGLILHHLFQKLASLKLEVEEISLTSASQRHKLGVILEAVNQNLQVEEKQAKWSVETIFNKDLLATLHLLVALAKRFQPDLPLPDNVQVEVIHIESTKTGLKSDKQVEQLTECKSHKDQPLQDAFDELFKLAPEKVHAVQEAIVSFVNQKLERLGLSVQSLDTQFADGVILLLLIGQLEGFFLHLTEFYLTPSSPTEMLHNVTLALDLLKDEGLFSYPVNPEDIVNKDAKSTLRILYSLFQKHSLRAEGGGAHHATPN | soluble
9 | SQRGVLEDEQMYQRCCNLFEKFFPSSSYRRPVGISSMVEAMVSRARIDARIDFESGRIKKEEFTEIMKICSTIEELRRQK | soluble
10 | SLKVAIFDAFNGASGDMILASLLGVGISEEEIDEVVKALGIDVNYSMTTVSVRGISARRVEVEERDGERSFKEVLEIIRSSNLEEGVKKNAIAVFELIARAEGKVHGRDYREGVFHEVGADDAIFDVVCCVKAFENLKTAGYEFFATPVRAGSGFVEFSHGKYPVPPPAVLEILKSSNLEVVMDGEGELLTPTGAAILSHYCKPLKPFPIRVKEVSYGAGKRETDVPNVLRLILGETAFHDSIVVIETSVDDLSGEMIGYAMKKLLERDDVLDAVIIPAYGKKMRPASILKVISPTHRSEEVAAEVMRLTGSLGIRIIPVHHRLISERMEEVVKVEISGKEFDVRVKRSYPGFRHLKPEFDDIAVIADELNIPPHVVYREIVRKIVGAENADSNGQ | soluble
11 | MRDPLCDESYLLKTIESNRKFISKRKEKIIGLKADIENGIQRYPRDNQSIIYITFSQMFMYGMNMLLAKYSLGNHPDTMIDDYLDNITYLENCGEEEAGYINLLWMVGLGILLEMDKEVLKRLARVIERQRIEDALMDFLLKACDIGWNHSTTKYEKKNPYEKTVEIIKIALHDKDKEAASKRLEKYMEKEWFKGHYDFGWRNAHKEPGYYGFWSFDTAALAKILGLDDSALKDNNHYPYDLAHYKNGMTFDLSWYSEPREEEVREETVVYGIPGNPLLERIIPGRFHSFVNEIINDYKTLPDEEFWKKYNLKEIWFDVEEYKEDNKDKNLLGTIIVFMLVDKDYILQLDYKEELIDYIENIHNYWPKEEVKLISFELDNDQQYYAYVPKDAEAGSLYEVKVTEVEKIEEV | not soluble
12 | SLPIASTATQMGSNKTRIFARQPAKAPPPLAWLSRPRDPRATAIAAAGQQSSRRVSKRELESHGSATDAWTAIHGVVYDITAYFRFHPGGAEILFIEAAGKDSTAVFDEMHPWVNVAWLLKDYRIGLYAPESEDDGGDDDDDDRTMTSPE | soluble
13 | MGSDKIHHHHHHMKVLLTRPEGRNQQMADALTQLGIGYHLCPLLEITPSNTPPKASFFSADKLVFISANAVYFAANNLNNHFPMHCEYFAVGEATQMALAEYQVVSQSAPSSQQDSEGLLSLSQLQDVELQKITIVRGEGGRETLAQTLSERGANVDYWQVYQRSKPALDPKSVCQQWQDLGIDTLVLTSGEALANLMELVPKELFAWLRSCHMIVPSHRVQVQAISQGFHRVSNANGASTQAILTALAL | not soluble
14 | MASTIAFPAMVKELRLSKNLTMEQLAEEVGKTKSTISKWEKGTRSPKIYEIEEIAKFFGVEPKKMMFGDNPTPTAPQVELIPSTLQKINSTSSQLEHKRQLNVLDYAETQLEQQNTVEEPQATYYTYNYYDHAASAGTGQYLNDVQVETIELPVDYDADFVIPVYGDSMEPKYHSGDYVFVKLSVELTDGDIGVFEYYGDAYIKQLLINDKGAFLHSLNQCGDYPDIPIDRDSDFRIIGEVMGSYRER | not soluble
15 | GSHMSLSNKLTLDKLDVKGKRVVMRVDFNVPMKNNQITNNQRIKAAVPSIKFCLDNGAKSVVLMSHLGRPDGVPMPDKYSLEPVAVELKSLLGKDVLFLKDCVGPEVEKACANPAAGSVILLENLRFHVEEEGKGKDASGNKVKAEPAKIEAFRASLSKLGDVYVNDAFGTAHRAHSSMVGVNLPQKAGGFLMKKELNYFAKALESPERPFLAILGGAKVADKIQLINNMLDKVNEMIIGGGMAFTFLKVLNNMEIGTSLFDEEGAKIVKDLMSKAEKNGVKITLPVDFVTADKFDENAKTGQATVASGIPAGWMGLDCGPESSKKYAEAVTRAKQIVWNGPVGVFEWEAFARGTKALMDEVVKATSRGCITIIGGGDTATCCAKWNTEDKVSHVSTGGGASLELLEGKVLPGVDALSNI | soluble
16 | MSIMKTADRPHAMNRRQDAIFLEVFWARVRSIADEAAKLIVRTSFSTLSTEANDFTVVVTDSAGRCLTENSGSIPAFIGTLPATVQAVIAKYPHHTLRPGDVFITNDPWIGTGHLNDVCLVKPVFHLGKVVAFAATAGHVPDIGGRFRSVNAHELFEEGLQIPVIRLLDQGAPNEAILDMIRTNVRTPDQTAGDIWSQASAVELVARRLGEVLVEYALPGVDDIAEALFERGDRALRKAISALPDGQYRYAMQTDGFEQRLDLAVTVRIEGDAITCDFTGTSPQQPRAINCPLGYTTAMAVYAIKCLLVPDIPNSDGMLRAIRVEAPEHSLLNPARPAAVGGRASTGHYLPVLIFGAMHAVLPERVMAGAGSPLWSANISGTGADGLPMATVLFFNGGMGATCGKDGAAVMSWPSNISPTPVEVAERDIPLFFRYKRLRVDSGGPGQWRGGLGEEVCMVSRHDRPLSVVFLAERTREPAPGLGGGQAGVPGAVWINGVAVDVRERHLLNPGDELVMRTPGGGGFGPPGQRDPALADHDYRLGYSAAPGTARQS | not soluble
17 | KRIVLGVGGGIAAYKSAELVRRLRDQGAEVRVVMTQGGREFITPLTLQALSGHPVHTDLLDPAAEAAMGHIELARWADLVLIAPATADLMARLVQGVANDLLTTLVLATDAQIALAPAMNQAMWRDTATQANAELLRQRGFHLFGPAAGSQACGDVGLGRMLEAEELAQRAADCFQRQALTGVHVLITAGPTQENIDPVRYITNHSSGKMGFALAEAAVEAGARVTLVTGPVHLPTPDRVQRVDVVSARDMLAACEAAMPCDLLIASAAVADYRPEVVAAHKLKKDPTSGEGLLLQLVRNPDILATLAQREDRPFSVGFAAETENLLDYAARKLKDKNLDLIVANDVANPSIGFNSDENAITVIDRDLHPSTFAQTSKGKIARQLVAFIAD | not soluble
18 | AGKTLYGKLWDIHEVARRDDGSSLIYIDRHILHEVTSPQAFEGLRLAGRPLWRVNANIATPDHNVPTTKAERQGSLLSIADTVSRLQVQTLDENCDDFGIFEFKMNDVRQGIVHVIGPEQGATLPGMTVVCGDSHTSTHGAFGALAHGIGTSEVEHVLATQCLVTQKMKN | not soluble
19 | MTYWICITNRENWEVIKRHNVWGVPKKHKNTLSRVKPGDKLVIYVRQEKDKEGNLLEPKIVGIYEVTSEPYVDFSRIFKPHRGGKETYPYRVKIKPIKIGEINFKPLINDLKFIKNKKRWSMHFFGKAMRELPEEDYKLIEKLLL | soluble
20 | MVSIKEHLEELLESFDYSGDVEERIRLLRAAIGRIGNMFYGTENEEIYADQVRRIKLRLRELRETYATSEDNWRELMDNLEELRDQIERLAIRGGIIEK | not soluble
21 | MGSDKIHHHHHHSCDNDDDESIAVPTPLQEAFSTRYPNVKNVKWETKAGYYVADFYDGYEASAWFTTDGNWHMTETDIPYTALPDPVKSAFEASDYKTWKRDDVDKLERQGIETVYVIEVENQNQEVDLYYSADGVLIKSIADTDDHENEHLPTTQLPAVMKTFIDGKYAGARIVEVDVEDDKNDWDFGFTEVDIIHFDSGLNRNVSKEVLFDKGREWYSTSWEVRRNELPTAVTNAISTEYAGYQMDDAEYFEMATETSYYQIELEGNNSPDIDIKVTADGTILK | not soluble
22 | MARPETEPKTELAKRFREVRRILGFTERKQFAEHLGVTAGSIGTYETGVSEPTASALSKYQEICGVSLDWLVTGNGEMFTDMAKAKAAGFKPQAIPAGLMKRLGHLAYTTYHDAKITLPPEDVAELAAGLYGKLQELIHNINDMEEVEATLPLLKLHLKRQIEVEKAHRAIPGNTANSSD | not soluble
